# Test results published in a protein production outcome set (Wang et al. 2014).
# Test: label from the status in PepcDB records
# 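Also: failed if final PepcDB status was selected cloned or expressed and not failed if soluble or beyond.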
row,Sequence,protein production
1,MDSSSISSLLEDLKHSDALVREQATKKLWRIWFQQKGMYGLEKIDQSQKLLDAGEITEAEVMLTQLIQEQPDFAEAWNRRAFLYYSMGEYQKSLADCQMVIQINPVHFGALHGIGLCYAALGKYAKAIKAFKRALEIQPYSLVNQKLILECTFRLSLEHHHHHH,failed
2,MDTDFRVTGRNAAALFALTIHRGDGMVLLGMDWKNGRPPIDFVGFAIQYREPGTDFFKNVRNRIGFPGQPVPADGIRTTEAPIQKFRWVHFPFNADLPGKFLYRVTPKFMDAAGGLASGEAQEAELALMRETIPGKLNVAFTRGFVSSQAFVRNFAPDAPTIITLVPPVGDEGLDFVPTHADAERALAWMGFEARAETLDLLDRAQAAGAEVRVIAYDLNLPEVVTRLEALGPKLKIIIDDSARTDGHGRPDSPETKAAERLIASAGAANVKRQHMANLQHQKSIAVRGGGISTVLYGSTNLSWRGLYVQSNNSLAVHSEKAIDDYFTAFESYFTAKRAADFRSSASSAGWIDLGLDGVDAKVAFSPHSDANGRLDEIGADIDTAQSSVLFSLAFLGQMTRGAIGPALGRALERPEVHVMGIADAEVRAGNLGLNVLTPDNRRRVVRAAALTGNVPPPFLTEPSGLAGVDGNQRGTRMHHKFVVLDFDKPTARVYLGSYNFSNPADDENGENLVVVRDRTVATSYMIEALRMYDHYVFRVASEASDGPARPLELKRPPQPGGTPWFERDWTDPIRARDRELFARAE,failed
3,MDTDWSNLAVRLERLLERFERIIDRHDPVLPRDPAFFDGAIAFRWRRSGEQGTFEPVTHPHLPDPADLVGIDLVREDLIRNTAQFMDGYPANNVLLWGERGTGKSTCVKGMLRLFADRGLRLVEVQRDDLMSLPALIAALRSVPRRFILFCDDLSFGEGEGGYRELKALLEGSIEAKPTNILFYATSNRRHLLPERMEDNLSSEIHPEEAVSEKLSLADRFGMALGFYPFSQDVYLSIVERYAEKFALPMEREALRKEAHLWAMYRGSRSGRSARQFIDDLAGRLGVRLNDRLEHHHHHH,failed
4,MDTEADLFYRQLPKVELHAHLNGSVSFETMEKLIKRKPHLNIEHSMTAIRRGQRRTLDECFQVFKVIHQLVDSEEDILMVAKSVIQEFAADGVKYLELRSTPREVTETGLSKQRYIETVLEAIRQCKQEGVDIDVRFLVAVDRRHGPEVAMQTVKLAEDFLLSSDGTVVGLDLSGDPTVGHGKDLLAALQKAKNCGLKLALHLSEVPSQIDETELLLNLPPDRIGHGTFLHPDVGGSDSLVDKVCKQNIPIEICLTSNVKGQTVPSYDKHHFKYWYNRGHPCVLCTDDKGVFCTDLSQEYQLAASTFGLTKEAVWILSQQAIGYTFAPEPIKQRLEKTWAELKQQILQ,failed
5,MDTIQKRPRTRLSPEKRKEQLLDIAIEVFSQRGIGRGGHADIAEIAQVSVATVFNYFPTREDLVDDVLNKVENEFHQFINNSISLDLDVRSNLNTLLLNIIDSVQTGNKWIKVWFEWSTSTRDEVWPLFLSTHSNTNQVIKTMFEEGIERNEVCNDHTPENLTKMLHGICYSVFIQANRNSSSEEMEETANCFLNMLCIYK,failed
6,MDTLKVRDAQEVEDAVRAAIANEQPIEIVGHGSKRSIGQLMSTNAVLELSALNAVTAYEPNELIITVQAGAPMADVLSLIDSKNQQFAFEPMDTATLLGTTPGAGTVAGMISAGLAGPRRIKAGGARDHLLGANAVSGFGESFKAGGKVVKNVTGYDLCKLLAGSWGTLAVMTEVTLKVTPRPESERTLVLRGLADVVANKAMTAALGSPYDVTGAAHLPGSALRTTAGALAEIAQPDQSLTLLRLEGITSSASHRAQSLRAALKSFGDAELIEDDASAALWRAVRDVEPFAASGPRALWPVWRIVCPPAAGGAFGEQLSRESGGEVIYDWGGGLIWAALPPATDGHAKALRQRVEKIGGHATLIRGSDAVRAGIDIFHPQPAGLAALGSRVKRSFDPTNILNRGRMSRGSAT,failed
7,MDTNGVLYAANMTNALAKEIPESKWDIQLIPELGTLRKLFIHIVRVRDVYRDGLKTGSIKFPGRLASDEHRLLDELERSMEELVFEFKQTTFNSIKMGENYLSIMELLGTVIQHEGIHQGQYYVALKQSGINLPKQWVQDWHM,not failed
8,MDTPPTVFSIIIPVYNRPDEVRELLESLLIQTNSDFEVIIVEDGSSVCCDKEVDRVRELLRIQYVRVPNGGPAAARNIGARMAVGEYLLILDSDVVLPSGYIAAVKKRIEQMQADAFGGPDAAAEGFSPIQKAINYAMTSFFTTGGIRGGRRVRLDKFYPRSFNFGCKLSVYRQLGGFSEEMRFGEDIDFSLRLFKAGYNVCLFPEAFVFHKRRIDFKKFFRQVYNSGIARIHLQRRHPGSMKPVHILPALFTLGSVILAVGQFFCPWSLLPLLLLALLFLLDAWHTNRSLRIAILAVPASFVQLWGYGSGFLVACWRCYVLGHQEFRAFDKTFYN,failed
9,MDTRFCSSLLIKNLNTFPASNKEIMNVTVSEAERNAGDERPDLQACAEAYAIVNSAFTKAVTFFKQAYYSKIVNIEKKVSMAVDICKTDFNVLGYQINPLIEKNRQTKILLSMEQIVSHMVSS,failed
10,MDTTCLVLTWMGSRVPIETIEEDGEFDWEAAVKEIDLACLKTTNAHPPITENLTKPPAKRQSTLDKFIGRTEPKPENHQVVSECGGNDNDNSLLVEIDPEAAKTWIYRGLLRLLTF,failed
11,MDTTFGLDLARVETLFKRELRRFDELHPRSAQAYRENRRHWLYGAPLHWMQQWPGNCPLLVKEAQGARVTDIDGQQYVDFALGDSGAMFGHAQPAVADAIARQARRGSTLMLPTEDSLWVGAELARRFGLPYWQVTTSATDANRFVLRLCRMLSGRDKVVVFNCNYHGSVDESQVEFDAAGRMVPRAGVHPNGVRHATTTRLVEFNDLDALEAALAHGDVAAVLTEPFMTNVGMVPPAEGFHAGLRELTRRHDVALIIDETHTISCGPAGYSGAHGLEPDFFVLGKCIAGGIPSAVWGCSQAQAERIWAVLPHFRPGQAINHFGFGGTLAGNALQLAAMRATFAEVMTEDAYRHMFQLAAQLEAGVRATLEELRLPWHVTRIGARVEYLFMTHAPRNGGEAHHARNGLIEACLHLYLLNRGVLLTPFHNMALTCPATRAEDVELHDRLLRDCLGELLERPS,failed
12,MDTVWMEIWTTVRNEFADIPDVAEATRIVLRLGMAVALGGLLGYERERSGKAAGLRTHMLVALGAALFVLVPLQGGMEVGDLSRVLQGVIAGIGFLGAGAIIKLGNEGEIRGLTTSAGIWLTAAIGVAAGMGREATALASTLIALFVLAALRHLEKRIAARDDKRVVAQPPP,failed
13,MDVFSEILNGIGRLLLQPALYVGIILVIIAGFNRVKWERKSFSISIYSPWLELKNFFGVSLLFGLVLSIITTLIGFSVMIEWIAIFNAVACFLLIVGMFRLSSTAFTIGITSLIFYFCYYFDVNLSPFTNLEFTYDAIFIDNFMISMTFLLAILLFVEAFLIQYTSAKNPSPSLRKSKRGKLVGSFQLRKLWFVPLVVFIPGDVFTKIFEWWPVFTIGSESYSLIILPLFIGFQQQVQAQLPEEASKKIAVQVTTLATIIAVAGLIGIVMPVLTLFAFMFAVIGRFWISYRHYRSEQLLPKKFGPQPDGLVVLGARESTPSTRLNLKAGEKITEVNGQKVHNREELYEALNLNRAFCKLKVIDNAGEPRFEQTALYENESFELGLLLVEPR,failed
14,MDVGESNERVKDDSALQASPRSPLSSIDLAIDGAMNASIEQLYHNVCEMESSDDQSPSRASFISYGAESRIDLELRHLVGDVGEEGESKKEIILEKKEESNGEGSLSQKKPLSNGKKVAKTSPNNPKMPGSRISSRKSPDLGKVSVDEESPELGVVLLKQARELVSSGENLNKALDLALRAVKVFEKCGEGEKQLGLNLVMSLHILAAIYAGLGRYNDAVPVLERSIEIPMIEDGEDHALAKFAGCMQLGDMYGLMGQVENSIMLYTAGLEIQRQVLGESDARVGETCRYLAEAHVQAMQFEEASRLCQMALDIHKENGAAATASIEEAADRKLMGLICDAKGDYEVALEHYVLASMAMSSQNHREDVAAVDCSIGDAYMSLARFDEAIFAYQKALAVFKQGKGETHSSVALVYVRLADLYNKIGKTRDSKSYCENALKIYLKPTPGTPMEEVATGFIEISAIYQSMNELDQALKLLRRALKIYANAPGQQNTIAGIEAQMGVVTYMMGNYSESYDIFKSAISKFRNSGEKKTALFGIALNQMGLACVQRYAINEAADLFEEAKTILEKECGPYHPDTLAVYSNLAGTYDAMGRLDDAIEILEYVVGTREEKLGTANPEVEDEKQRLAALLKEAGRGRSKRNRALLTLLDNNPEIANGQRPVY,failed
15,MDVGVVRPQRTEAGWDGGVAPRAGPTRRREACTAYVQRVAGGSGLPEGSSGSEPGPGRSRERPGDAAGGSGNAGCCACPVVSETGGDWLTDSTNRAFSVPGDFQGRRQAEGKTQKVRVQSTGKVPPFPVMKLQVLVLLMSWFGVLSWVQAEFFTSIGHMTDLIYAEKDLVQSLKEYILAEEAKLSKIKSWASKMEALTSKSAADPEGYLAHPVNAYKLVKRLNTDWPALGDLVLQDAAAGFVANLSVQRQFFPTDEDESGAARALMRLQDTYKLDPDMISRGELPGTKYQAMLSVDDCFGMGRSAYNEGDYYHTVLWMEQVLKQLDAGEEATVTKSLVLDYLSYAVFQLGDLHRAVELTRRLLSLDPSHERAGGNLRYFERLLEEERGKSLSNQTDAGLASQENLYERPVDYLPERDVYESLCRGEGIKMTPRRQKRLFCRYHHGNRVPQLLIAPFKEEDEWDSPHIVRYYDVMSDEEIERIKEIAKPKLARATVRDPKTGVLTVASYRVSKSSWLEEDDDPVVARVNRRMQHITGLTVKTAELLQVANYGMGGQYEPHFDFSRSDERDAFKRLGTGNRVATFLNYMSDVEAGGATVFPDLGAAIWPKKGTAVFWYNLLRSGEGDYRTRHAACPVLVGCKWVSNKWFHERGQEFLRPCGTTEVD,failed
16,MDVMRSVLGMVVLLTIAFLLSVNKKKISLRTVGAALVLQVVIGGIMLWLPPGRWVAEKVAFGVHKVMAYSDAGSAFIFGSLVGPKMDTLFDGAGFIFGFRVLPAIIFVTALVSILYYIGVMGILIRILGGIFQKALNISKIESFVAVTTIFLGQNEIPAIVKPFIDRLNRNELFTAICSGMASIAGSTMIGYAALGVPVEYLLAASLMAIPGGILFARLLSPATESSQVSFNNLSFTETPPKSIIEAAATGAMTGLKIAAGVATVVMAFVAIIALINGIIGGVGGWFGFEHASLESILGYLLAPLAWVMGVDWSDANLAGSLIGQKLAINEFVAYLNFSPYLQTAGTLDAKTVAIISFALCGFANFGSIGVVVGAFSAVAPHRAPEIAQLGLRALAAATLSNLMSATIAGFFIGLA,failed
17,MDVTGKSLKRILLSLAVFCILITGPGIACAEEATTQEKEILFSDYFKSMMDMAQDKYKGEITEKQMLEGALKGIFSTMDSYTVYYTVEESQDFFTDINGSYTGIGVVMSEVDGKIVIDKVYPSSPAEEAGIKKGDVIAQVDGKSVENLSLEEVAGLIKGPSGTKVVIGVLRNGTDGVIELEVTRRQIIINPVTHKIEGDIGYIKLESFNSNASKAMEEALKQMDKNNIKKIILDLRDNPGGDVGQAVSIARKFVKKGLITKLDFKSESQKDEEYYSYLEELKYKLVVLVNENSASASEILAGAIQDTGSGILVGTTTFGKGKVQNLYPILTPEAVEKYRKETGETFVNGYDLLEKHGIYPSDEEIIGWVKITTGEYYTPNGRMIDGVGLEPDVYVENEPEGKYKILEGVEKLRKVTKPSLNAQSEDVLNAEKILSALGYDVDTPDNLMDEKTVKAVAEFQRDCGLYSYGVLDFATQQALNDKLDELLLVKNRDKQYEKAVELLEN,failed
18,MDVTWTVKYITEFVGTALLIIMGNGAVANVELKGTKAHAQSWMIIGWGYGLGVMLPAVAFGNITSQINPAFTLGLAASGLFPWAHVAQYIIAQVLGAMFGQLLIVMVYRPYYLKTQNPNAILGTFSTIDNVDDNDKKTRLGATINGFLNEFVGSFVLFFGAVAATNIFFGSQSITWMTNYLKGQGADVSSSDIMNQIWVQASGASASKMVAHLFLGFLVMGLVVALGGPTGPGLNPARDFGPRLVHSLLPKSVLGEAKGSSKWWYAWVPVLAPILASLAAVALFKMIYL,failed
